Experimental findings from the supplement of paper PMC9112550, “Optimization of the antimicrobial peptide Bac7 by deep mutational scanning” (BMC Biology, 2022) are described below.
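Further: peptides expressed intracellularly from a pBAD plasmid library in pooled LB shake-flask culture, induced with 0.3% L-arabinose, DNA abundance read by NGS, three biological replicates, DESeq2 with apeglm shrinkage.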

In the data set the test system is Escherichia coli TOP10. Put plainly: shrunken log2 fold change of peptide-encoding DNA abundance (4.5 h post-induction vs induction); higher = less antimicrobial activity (less host growth inhibition). The note with it: time post-induction: 4.5 h; library: site-saturation at positions 5, 18, 19, 20.
Take RRIRSRPPRLPRPRPRPVCRPRP: the “shrunken log2 fold change” value was determined as 0.199.

RRIRVRPPRLPRPRPRPNPVPRP: the “shrunken log2 fold change” value was -0.242.

Regarding RRIRNRPPRLPRPRPRPWIKPRP, the “shrunken log2 fold change” value is -0.739.

RRIRNRPPRLPRPRPRPYAQPRP: the “shrunken log2 fold change” value was -0.55.

As to RRIRWRPPRLPRPRPRPDCEPRP, the “shrunken log2 fold change” value came to 2.54.

On to RRIRHRPPRLPRPRPRPNTFPRP, for which the “shrunken log2 fold change” value is -0.00529.

On to RRIRFRPPRLPRPRPRPHHHPRP, for which the “shrunken log2 fold change” value is -0.678.

With RRIRVRPPRLPRPRPRPCMTPRP, the “shrunken log2 fold change” value amounted to 0.0668.

Consider RRIRVRPPRLPRPRPRPYMRPRP, for which the “shrunken log2 fold change” value was 0.162.

With RRIRCRPPRLPRPRPRPKRNPRP, the “shrunken log2 fold change” value was found to be 0.34.

For RRIRNRPPRLPRPRPRPGHAPRP, the “shrunken log2 fold change” value came out at 0.32.

Regarding RRIRRRPPRLPRPRPRPQYWPRP, the “shrunken log2 fold change” value is -0.147.

For the sequence RRIRARPPRLPRPRPRPTDLPRP, the “shrunken log2 fold change” value turned out to be 0.274.

For the sequence RRIRARPPRLPRPRPRPAEFPRP, the “shrunken log2 fold change” value stood at 0.304.

For RRIRDRPPRLPRPRPRPTVTPRP, the “shrunken log2 fold change” value is 0.853.

In the case of RRIRVRPPRLPRPRPRPPYVPRP, the “shrunken log2 fold change” value was -0.153.

On to RRIRERPPRLPRPRPRPCKHPRP, for which the “shrunken log2 fold change” value is -0.5.

In the case of RRIRFRPPRLPRPRPRPLIQPRP, the “shrunken log2 fold change” value is -0.289.

Consider RRIRNRPPRLPRPRPRPEKGPRP, for which the “shrunken log2 fold change” value is -0.0357.

In the case of RRIRQRPPRLPRPRPRPSNGPRP, the “shrunken log2 fold change” value is -0.687.

On to RRIRPRPPRLPRPRPRPVILPRP, for which the “shrunken log2 fold change” value is -0.26.

Regarding RRIRLRPPRLPRPRPRPKTDPRP, the “shrunken log2 fold change” value is -0.233.

As for RRIRVRPPRLPRPRPRPNGGPRP, the “shrunken log2 fold change” value was 0.0985.

Take RRIRDRPPRLPRPRPRPPCLPRP: the “shrunken log2 fold change” value is -0.264.

As for RRIRWRPPRLPRPRPRPYKEPRP, the “shrunken log2 fold change” value was -0.387.

RRIRPRPPRLPRPRPRPQNPPRP: the “shrunken log2 fold change” value was -0.216.

For RRIRFRPPRLPRPRPRPESVPRP, the “shrunken log2 fold change” value was found to be 0.257.

Take RRIRDRPPRLPRPRPRPYMTPRP: the “shrunken log2 fold change” value was -0.0206.

Consider RRIRQRPPRLPRPRPRPSSPPRP, for which the “shrunken log2 fold change” value is 0.167.

On to RRIRPRPPRLPRPRPRPHEIPRP, for which the “shrunken log2 fold change” value is -0.192.

For the sequence RRIRGRPPRLPRPRPRPQGGPRP, the “shrunken log2 fold change” value stood at 0.127.

Regarding RRIRYRPPRLPRPRPRPTKEPRP, the “shrunken log2 fold change” value is -0.00889.

Take RRIRHRPPRLPRPRPRPLKKPRP: the “shrunken log2 fold change” value is -0.157.

Regarding RRIRVRPPRLPRPRPRPYVYPRP, the “shrunken log2 fold change” value was -0.0156.

RRIRWRPPRLPRPRPRPGEVPRP: the “shrunken log2 fold change” value was -0.0252.

For RRIRRRPPRLPRPRPRPLLSPRP, the “shrunken log2 fold change” value came to 0.148.

In the case of RRIRRRPPRLPRPRPRPMCFPRP, the “shrunken log2 fold change” value was -0.0162.

Regarding RRIRFRPPRLPRPRPRPQATPRP, the “shrunken log2 fold change” value was -0.248.

Take RRIRKRPPRLPRPRPRPTLHPRP: the “shrunken log2 fold change” value was determined as 0.359.

On to RRIRMRPPRLPRPRPRPPHFPRP, for which the “shrunken log2 fold change” value stood at 1.03.

For RRIRMRPPRLPRPRPRPYVLPRP, the “shrunken log2 fold change” value is -0.189.

In the case of RRIRYRPPRLPRPRPRPKKRPRP, the “shrunken log2 fold change” value was -0.11.

As to RRIRFRPPRLPRPRPRPDIWPRP, the “shrunken log2 fold change” value was -0.273.

As for RRIRYRPPRLPRPRPRPVRYPRP, the “shrunken log2 fold change” value was -0.157.

In the case of RRIRRRPPRLPRPRPRPTQDPRP, the “shrunken log2 fold change” value came out at 1.87.

RRIRLRPPRLPRPRPRPRWSPRP: the “shrunken log2 fold change” value came to 0.129.

As to RRIRNRPPRLPRPRPRPDQQPRP, the “shrunken log2 fold change” value is -0.0806.

For RRIRCRPPRLPRPRPRPVAGPRP, the “shrunken log2 fold change” value was 0.0113.

For the sequence RRIRFRPPRLPRPRPRPMLGPRP, the “shrunken log2 fold change” value was -0.055.

Turning to RRIRLRPPRLPRPRPRPQSEPRP, the “shrunken log2 fold change” value is -0.0331.

As for RRIRPRPPRLPRPRPRPINLPRP, the “shrunken log2 fold change” value is -0.994.

For the sequence RRIRIRPPRLPRPRPRPCGGPRP, the “shrunken log2 fold change” value amounted to 0.188.

In the case of RRIRTRPPRLPRPRPRPWNWPRP, the “shrunken log2 fold change” value came to 0.0309.

With RRIRDRPPRLPRPRPRPEGIPRP, the “shrunken log2 fold change” value was -0.0215.

Turning to RRIRLRPPRLPRPRPRPGPKPRP, the “shrunken log2 fold change” value was 0.352.

In the case of RRIRCRPPRLPRPRPRPPNIPRP, the “shrunken log2 fold change” value is -0.573.

Take RRIRGRPPRLPRPRPRPNTAPRP: the “shrunken log2 fold change” value is 0.543.

With RRIRERPPRLPRPRPRPADGPRP, the “shrunken log2 fold change” value was -0.0752.

Regarding RRIRFRPPRLPRPRPRPNKNPRP, the “shrunken log2 fold change” value was -0.384.

Regarding RRIRKRPPRLPRPRPRPNDYPRP, the “shrunken log2 fold change” value was -0.115.

Take RRIRDRPPRLPRPRPRPVDIPRP: the “shrunken log2 fold change” value is -0.0995.

As to RRIRDRPPRLPRPRPRPIFQPRP, the “shrunken log2 fold change” value stood at 0.242.

Consider RRIRERPPRLPRPRPRPPDCPRP, for which the “shrunken log2 fold change” value was 0.0792.

Regarding RRIRARPPRLPRPRPRPDDIPRP, the “shrunken log2 fold change” value worked out at 0.0386.

As for RRIRNRPPRLPRPRPRPFEHPRP, the “shrunken log2 fold change” value is 0.0659.

On to RRIRDRPPRLPRPRPRPSKWPRP, for which the “shrunken log2 fold change” value is -0.196.

Regarding RRIRLRPPRLPRPRPRPPGIPRP, the “shrunken log2 fold change” value was -0.383.

As to RRIRYRPPRLPRPRPRPCFDPRP, the “shrunken log2 fold change” value is -0.808.

Take RRIRPRPPRLPRPRPRPGHVPRP: the “shrunken log2 fold change” value stood at 0.564.

Regarding RRIRSRPPRLPRPRPRPAWWPRP, the “shrunken log2 fold change” value stood at 0.23.

On to RRIRFRPPRLPRPRPRPFQNPRP, for which the “shrunken log2 fold change” value was -0.041.

Take RRIRSRPPRLPRPRPRPWHYPRP: the “shrunken log2 fold change” value is -0.162.

Consider RRIRHRPPRLPRPRPRPVLQPRP, for which the “shrunken log2 fold change” value was -0.169.

For RRIRCRPPRLPRPRPRPMACPRP, the “shrunken log2 fold change” value came to 0.00876.

Take RRIRWRPPRLPRPRPRPFHRPRP: the “shrunken log2 fold change” value is -0.2.

With RRIRRRPPRLPRPRPRPLLIPRP, the “shrunken log2 fold change” value stood at 0.145.

As for RRIRRRPPRLPRPRPRPWWNPRP, the “shrunken log2 fold change” value is -0.188.

For RRIRDRPPRLPRPRPRPMTAPRP, the “shrunken log2 fold change” value is -0.0214.

On to RRIRVRPPRLPRPRPRPRRNPRP, for which the “shrunken log2 fold change” value is 0.108.

In the case of RRIRCRPPRLPRPRPRPLFPPRP, the “shrunken log2 fold change” value is -0.2.

In the case of RRIRRRPPRLPRPRPRPCKTPRP, the “shrunken log2 fold change” value is -0.103.

Consider RRIRERPPRLPRPRPRPDTSPRP, for which the “shrunken log2 fold change” value is -0.417.

Take RRIRNRPPRLPRPRPRPVTLPRP: the “shrunken log2 fold change” value was -0.3.

As to RRIRHRPPRLPRPRPRPPIYPRP, the “shrunken log2 fold change” value was -0.204.

In the case of RRIRLRPPRLPRPRPRPVIQPRP, the “shrunken log2 fold change” value was -0.0903.

Consider RRIRDRPPRLPRPRPRPTGEPRP, for which the “shrunken log2 fold change” value was found to be 0.119.

As to RRIRERPPRLPRPRPRPHCVPRP, the “shrunken log2 fold change” value stood at 0.038.

For the sequence RRIRIRPPRLPRPRPRPVAIPRP, the “shrunken log2 fold change” value stood at 0.0188.

Take RRIRDRPPRLPRPRPRPTFEPRP: the “shrunken log2 fold change” value is 0.527.

RRIRKRPPRLPRPRPRPEERPRP: the “shrunken log2 fold change” value worked out at 1.23.

As for RRIRHRPPRLPRPRPRPFMIPRP, the “shrunken log2 fold change” value was -0.341.
